Source: publication PMC10540840, “PET imaging with [^68Ga]-labeled TGFβ-targeting peptide in a mouse PANC-1 tumor model” (Frontiers in Oncology, 2023)
Peptide text beside a SMILES is read from it. * marks the point of attachment. DOTA = O=C(O)CN1CCN(CC(=O)O)CCN(CC(=O)*)CCN(CC(=O)O)CC1; PEG3 = NCCOCCOCCOCCC(=O)O

Tests used:
human glioblastoma cells = settings: ref [28]; cited from earlier work
Text: TGFβ-specific blocking peptide P144 selected in this study was an analog of the essential structure for ligand recognition and binding in the extracellular domain of TGFβR3, which has high specificity and affinity to TGFβ ([36]). […] The doses of th ...

[1] = Radio-HPLC radiochemical purity after standing at room temperature (stability); type: physicochemical; settings: C18, room temperature, 4 h after synthesis
Experimental: Radio-HPLC and radio-iTLC assays were conducted for the quality control of product [^68Ga]Ga-DOTA-P144 and free [^68Ga] ions. American alltech1500 high-performance liquid chromatography and online radioactive detector were used. Chromatographic column: YMC-Pack Pro C18 RS (5 μm, 250 mm × 4.6 mm). Mobile phase: A) water + 0.1% formic acid; B) acetonitrile. Method: 0 min, 95% A and 5% B; 1 min, 95% A and 5% B; 10 min, 70% A and 30% B; 18 min, 70% A and 30% B; 25 min, 95% A and 5% B; flow speed, 1 mL/min. The quality control standard was that the chemical and radiochemical purities of the products were greater than 95%. Radio-iTLC analytical quantification methods/conditions were as follows. The stationary phase was iTLC glass fiber (1 cm × 8 cm instant silica gel strip), and the developing solvent was 2 mM of sodium citrate/citric acid buffer solution (pH 6.5). performed according to General Rule 1401 in Chinese Pharmacopoeia (2020 Edition), the method for the determination of radioactive drugs, the Rf value of the radioactive peak of the product to be tested was approximately 0.1–0.4, and there was a single main peak under normal conditions. If there were impurities, especially free [^68Ga] ions, the corresponding peaks should appear at the Rf value of approximately 0.6–0.8. […]

PANC-1 cells = test: Cell uptake (internalization) assay in PANC-1 cells; type: cell-based, human; settings: 200 MBq/L, 0.5-5 h incubation, FCS-free medium, γ-counter, %AD per 1 × 10^6 cells, three series
Experimental: (§1) The method process for cell uptake assay of radiolabeled drug was as follows. First, the selected cell lines were inoculated into a 6-well plate, incubated for 48 h to achieve a cell coverage rate of approximately 80%–90% (1.2–2 × 10^6 cells/well), and replaced with 1 mL of fresh culture medium without fetal calf serum (FCS). Then, a certain amount of radionuclide-labeled drug (200 MBq/L) was added to the culture well and incubated for different times (0.5–5 h). The culture medium containing the drug was removed, and the cells were washed twice with 1 mL of phosphate-buffered saline (PBS) (pH 7.4). Cells were incubated with 1 mL of glycine HCl solution (1 M, pH 2.2) at room temperature for 10 min to remove surface binding, and the cells were washed with 2 mL of ice-cold PBS (collect washing solution for detection of binding amount). After that, 1.4 mL of lysis buffer (0.3 M of NaOH, 0.2% sodium dodecyl sulfate (SDS)) was used to lyse the cells and collect this lysate. With a γ-counter, the radioactive activity in the collected lysate was measured, and the %AD value was calculated. One mio (1 × 10^6) of cells was adopted for normalization, with the result representing the internalization uptake level of the tested radiopharmaceutical by this cell line. Each experiment was repeated three times independently, with three multiple wells set at each processing time point.

PC3 cells = test: Cell uptake (internalization) assay in PC3 cells; type: cell-based; settings: 200 MBq/L, 0.5-5 h incubation, FCS-free medium, γ-counter, three series
Experimental: as §1

in vivo [2] = settings: nude, mouse, iv, 1 mg/kg, total radioactivity
Experimental: (§2) Pancreatic cancer cell line PANC-1 was obtained from the ATCC, and cells were cultured in complete RPMI1640 medium supplemented with 10% fetal calf serum (Life Technologies, Carlsbad, CA, USA). One portion of the PANC-1 cells (~1 × 10^6) was injected subcutaneously below the anterior axillary of the nude mice to induce the mouse heterotopic tumor model. The tumor cells were suspended in a mixture (v/v, 1:1) of medium and Matrigel (Corning Life Sciences, Corning, NY, USA). The tumor xenografts were generally palpable within 10 days after injection. Xenograft tumor sizes of the model mice were measured every 3 days. Short and long tumor diameters, tumor volume, and body weight were measured. When the xenograft tumor grew to a volume of 150–200 mm^3, the mice were used for PET imaging study. A diagnostic tracer and drug were injected approximately 2 weeks after the establishment of the tumor model.
(§3) Peptide conjugate P144-DOTA and the radiolabeled tracer [^68Ga]Ga-P144 were both administrated through tail vein injection. The chemical dose of [^68Ga]Ga-P144 was 1 mg/kg, and the radioactive dose was approximately 3.7 MBq in 200 μL per mouse. As a competitive blocker with the same target TGFβ, the dose of DOTA-P144 was 100 mg/kg (47.3 μmol/kg, 100 times the mass dose of the radiolabeled peptide conjugate), and the administration of this unlabeled peptide conjugate was followed after 10 min by 1 mg/kg of the radiolabeled tracer [^68Ga]Ga-P144. All the mice were deprived of food and water for 1 h before drug administration. Then, the mice were anesthetized with pentobarbital sodium (45 mg/kg) and scanned with microPET. After the last scanning, the mice were anesthetized with 2% pentobarbital sodium at 65 mg/kg intraperitoneally and then executed by dislocation of their cervical vertebra, and the tissues were harvested for analysis.
(§4) The tumor-bearing mice were anesthetized with pentobarbital sodium before microPET scanning. Each mouse was intravenously injected with approximately 3.7 MBq (90–120 μCi) of [^68Ga]Ga-P144. After administration, the mice were scanned by a small animal PET system (Inveon, Siemens, Munich, Germany). The body temperature of the mice was monitored by a rectal probe and kept at 37°C by a heated air stream. The scanning time was set as follows: static PET scanning for 10 min and scanning energy window 350–650 keV at four time points (1 h, 2 h, 3 h, and 4 h) after the injection. MicroPET image reconstruction was performed using a 3D OSEM PSF algorithm with five iterations. Images were processed and analyzed using PMOD4.2 software (PMOD Technologies Ltd., Zurich, Switzerland). Regions of interest (ROIs) of the brain, heart, liver, lungs, kidney, muscle, and tumor were delineated. Radioactivity values of the ROIs per unit volume were obtained, and the percentage of injected dose per tissue weight in gram (%ID/g) values of the different organs and tissues were calculated as follows:
(§5) %ID/g=radiouptake in ROI(kBq/g)/injection dose(kBq)×100.

[3] = system: PANC-1 tumor-bearing mice; test: in vivo; settings: mouse
Experimental: as §2, §3, §4, §5

in vivo [4] = settings: nude, mouse, iv, 1 mg/kg, total radioactivity; remark: listed apart in the source
Experimental: For biodistribution assay ex vivo, the PANC-1 tumor model mice were euthanized by pentobarbital sodium at 1 h after tracer administration. The blood was harvested via cardiac puncture, and the different organs/tissues were isolated, weighed, and counted on a γ-counter for radioactivity. The amount of the injected radiotracer was measured and used to determine the total number of counts of nuclei decay per minute (CPM) by comparison with a standard of known activity. The data were background- and decay-corrected and expressed as percentages of the injection dose per tissue weight in grams (%ID/g).

in vivo [5] = settings: nude, mouse, iv, 1 mg/kg, total radioactivity; remark: listed apart in the source
Experimental: as §3, with “After the last scanning, the mice were anesthetized with 2% pentobarbital sodium at 65 mg/kg intraperitoneally and then executed by dislocation of their cervical vertebra, and the tissues were harvested for analysis.” left out
The tumor-bearing mice were anesthetized with pentobarbital sodium before microPET scanning. […] The body temperature of the mice was monitored by a rectal probe and kept at 37°C by a heated air stream. […] Images were processed and analyzed using PMOD4.2 software (PMOD Technologies Ltd., Zurich, Switzerland). […] Radioactivity values of the ROIs per unit volume were obtained, and the percentage of injected dose per tissue weight in gram (%ID/g) values of the different organs and tissues were calculated as follows: […]

Molecule: TSLDASIWAMMQNA [P144]
- growth and proliferation of human glioblastoma cells (human glioblastoma cells): significantly inhibit

Molecule: CC[C@H](C)[C@H](NC(=O)[C@H](CO)NC(=O)[C@H](C)NC(=O)[C@H](CC(=O)O)NC(=O)[C@H](CC(C)C)NC(=O)[C@H](CO)NC(=O)[C@@H](NC(=O)CCOCCOCCOCCNC(=O)CN1CCN(CC(=O)O)CCN(CC(=O)O)CCN(CC(=O)O)CC1)[C@@H](C)O)C(=O)N[C@@H](Cc1c[nH]c2ccccc12)C(=O)N[C@@H](C)C(=O)N[C@@H](CCSC)C(=O)N[C@@H](CCSC)C(=O)N[C@@H](CCC(N)=O)C(=O)N[C@@H](CC(N)=O)C(=O)N[C@@H](C)C(N)=O [[^68Ga]Ga-P144, metal not drawn] ({DOTA-PEG3}-TSLDASIWAMMQNA-NH2; N-terminus and C-terminus assumed)
- radiochemical purity after purification and placement at room temperature for 4 h [1]: 98.87%
- cell uptake ratio (internalization) (PANC-1 cells): high and persistent
- cell uptake ratio (non-specific cellular uptake) (PC3 cells): very low level
- tissue to tissue ratio at 1 h (in vivo [2]): 3.44 ± 1.53
- tissue to tissue ratio at 4 h (in vivo [2]): 3.77 ± 1.18
- tissue uptake at 1 h (in vivo [2]; uptake in heart): 5.74 ± 1.68 %ID/g
- tissue uptake at 4 h (in vivo [2]; uptake in heart): 3.92 ± 0.891 %ID/g
- tissue uptake at 1 h (in vivo [2]; uptake in kidneys): 3.32 ± 0.636 %ID/g
- tissue uptake at 4 h (in vivo [2]; uptake in kidneys): 2.8 ± 0.281 %ID/g
- tissue uptake at 1 h (in vivo [2]; uptake in liver): 4.01 ± 0.975 %ID/g
- tissue uptake at 4 h (in vivo [2]; uptake in liver): 2.91 ± 0.431 %ID/g
- tissue uptake at 1 h (in vivo [2]; uptake in lung): 3.56 ± 0.739 %ID/g
- tissue uptake at 4 h (in vivo [2]; uptake in lung): 2.19 ± 0.206 %ID/g
- tissue uptake at 1 h (in vivo [2]; uptake in tumors): 5.76 ± 1.21 %ID/g
- tissue uptake at 4 h (in vivo [2]; uptake in tumors): 6.02 ± 1.37 %ID/g
- tumor retention time [3]: > 4 h
- tissue uptake at 1 h (in vivo [4]; ex vivo radioactive biodistribution in heart): 4.89 ± 0.899 %ID/g
- tissue uptake at 1 h (in vivo [4]; ex vivo radioactive biodistribution in kidney): 2.98 ± 0.854 %ID/g
- tissue uptake at 1 h (in vivo [4]; ex vivo radioactive biodistribution in liver): 1.95 ± 0.717 %ID/g
- tissue uptake at 1 h (in vivo [4]; ex vivo radioactive biodistribution in lung): 3.16 ± 0.429 %ID/g
- tissue uptake at 1 h (in vivo [4]; ex vivo radioactive biodistribution in tumors): 4.63 ± 1.22 %ID/g
- tissue uptake at 1 h (in vivo [5]): 5.36 ± 0.937 %ID/g
